Assay results as given in PMC9167820, “An experimental study of the effects of SNPs in the TATA boxes of the GRIN1, ASCL3 and NOS1 genes on interactions with the TATA-binding protein”.

Tests used:
[1] = biological target: TATA-binding protein (TBP) (Homo sapiens) (UniProt P20226); test: EMSA (kinetic, kd/ka); conditions: 20 mM HEPES-KOH pH 7.6, 5 mM MgCl2, 70 mM KCl, 1 mM DTT, 100 ug/ml BSA, 0.01% NP-40, 5% 'XYZ' (so in the source), 25 C; TBP 0.4 nM; gel 5% PAGE Tris-glycine pH 8.3 …
[2] = biological target: TATA-binding protein (TBP) (Homo sapiens, UniProt P20226 1-339); test: EMSA (kinetic, kd/ka); 20 mM HEPES-KOH pH 7.6, 5 mM MgCl2, 70 mM KCl, 1 mM DTT, 100 ug/ml BSA, 0.01% NP-40, 5% 'XYZ' (so in the source), 25 C; TBP 0.4 nM; gel 5% PAGE Tris-glycine pH 8.3, 10 C; conditions: protein: recombinant; label: 32P; blunt
TATA-binding protein (TBP), sequence (P20226 whole entry): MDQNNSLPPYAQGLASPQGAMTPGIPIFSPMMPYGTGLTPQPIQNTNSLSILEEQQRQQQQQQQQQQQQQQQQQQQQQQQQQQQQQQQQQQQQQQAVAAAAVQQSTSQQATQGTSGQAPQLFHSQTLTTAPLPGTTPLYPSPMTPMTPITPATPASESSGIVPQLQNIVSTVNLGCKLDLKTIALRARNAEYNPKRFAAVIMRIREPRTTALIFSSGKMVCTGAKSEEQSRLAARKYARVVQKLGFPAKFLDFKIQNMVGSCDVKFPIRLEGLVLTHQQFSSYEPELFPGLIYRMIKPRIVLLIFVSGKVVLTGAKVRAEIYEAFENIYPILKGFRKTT

TATA-binding protein (TBP) (Homo sapiens), sequence (P20226 whole entry): as above

| Molecule | Kd [1] [nM] | Kd [2] [nM] |
| --- | --- | --- |
| TCGAAAAATAAAACAAAATAAAACAT (double strand) [ASCL3 -45T>C (rs1049743008)] | 17 |  |
| NOS1 -27G>A (rs1195040887) (dsDNA) DNA 1: TGTTTCCTGATAAAAAAAAAAAATGG DNA 2: CCATTTTTTTTTTTTATCAGGAAACA |  | 59 ± 9 |
| GRIN1 WT (dsDNA) DNA 1: TGGAGGGGGACAAAGACAGGGTGGTG DNA 2: CACCACCCTGTCTTTGTCCCCCTCCA |  | 320 ± 50 |
| NOS1 WT (dsDNA) DNA 1: TGTTTCCTGATAGAAAAAAAAAATGG DNA 2: CCATTTTTTTTTTCTATCAGGAAACA |  | 70 ± 20 |
| ASCL3 WT (dsDNA) DNA 1: TCGAAAAATAAAATAAAATAAAACAT DNA 2: ATGTTTTATTTTATTTTATTTTTCGA |  | 12 ± 5 |
| GRIN1 -34G>A (rs1402667001) (dsDNA) DNA 1: TGGAGGAGGACAAAGACAGGGTGGTG DNA 2: CACCACCCTGTCTTTGTCCTCCTCCA |  | 200 ± 50 |
